Results taken from patent US20090208538A1 (published 2009).

Tests used:
[1] = target: T1, cdr2 (cerebellar degeneration-related 2 protein), human peptide on HLA-A*02:01 (human); assay: multimer staining
T1 peptide: LLEEMFLTV

[2] = target: T2, cdr2, human peptide on HLA-A*02:01 (human); assay: cytokine release
T2 peptide: SLLEEMFLTV

[3] = target: T3, cdr2, human peptide on HLA-A*02:01 (human); assay: cytokine release
T3 peptide: SLLEEMFLT

B1: cdr2 TCR (clone 11/12) (TCR, V domains shown)
Valpha: QQQVRQSPQSLTVWEGGTTVLTCSYEDSTFNYFPWYQQFPGEGPALLISILSVSDKKEDGRFTTFFNKREKKLSLHIIDSQPGDSATYFCAASGASGGSNAKLTFGKGTKLSVKS
Vbeta: DSGVVQSPRHIIKEKGGRSVLTCIPISGHSNVVWYQQTLGKELKFLIQHYEKVERDKGFLPSRFSVQQFDDYHSEMNMSALELEDSAMYFCASSLGGWAEQFFGPGTRLTVL
binding result [1]: recognises | binding result [2]: recognises | binding result [3]: no recognition
